Key:
[1] = biological target: Plant-expressed N6 (pN6), broadly neutralising anti-HIV monoclonal antibody N6 expressed in glycoengineered ΔXF N. benthamiana (human); assay: SPR
[2] = biological target: Mammalian cell-expressed N6 (mN6), broadly neutralising anti-HIV monoclonal antibody N6 expressed in HEK-293T cells (human); assay: SPR
Chain of Mammalian cell-expressed N6 (mN6), broadly neutralising anti-HIV monoclonal antibody N6 expressed in HEK-293T cells (human) (heavy, as listed by the source, chain 1 of 2): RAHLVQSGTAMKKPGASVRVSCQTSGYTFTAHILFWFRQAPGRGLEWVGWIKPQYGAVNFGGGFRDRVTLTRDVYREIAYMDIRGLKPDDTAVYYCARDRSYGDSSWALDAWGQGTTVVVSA
Chain of Mammalian cell-expressed N6 (mN6), broadly neutralising anti-HIV monoclonal antibody N6 expressed in HEK-293T cells (human) (light, as listed by the source, chain 2 of 2): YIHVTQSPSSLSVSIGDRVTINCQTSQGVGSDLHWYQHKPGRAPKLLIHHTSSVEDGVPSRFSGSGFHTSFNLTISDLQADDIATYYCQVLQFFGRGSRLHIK

Chain of soluble FcγRIIIa (P08637 17-208): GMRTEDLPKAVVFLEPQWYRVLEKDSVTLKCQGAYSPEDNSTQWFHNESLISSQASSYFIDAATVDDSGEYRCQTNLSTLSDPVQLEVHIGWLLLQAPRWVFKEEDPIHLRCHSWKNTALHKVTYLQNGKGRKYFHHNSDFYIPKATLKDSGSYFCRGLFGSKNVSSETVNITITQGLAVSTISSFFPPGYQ
Chain of Plant-expressed N6 (pN6), broadly neutralising anti-HIV monoclonal antibody N6 expressed in glycoengineered ΔXF N. benthamiana (human) (heavy, as listed by the source, chain 1 of 2): as the sequence (heavy, as listed by the source, chain 1 of 2) above
Chain of Plant-expressed N6 (pN6), broadly neutralising anti-HIV monoclonal antibody N6 expressed in glycoengineered ΔXF N. benthamiana (human) (light, as listed by the source, chain 2 of 2): as the sequence (light, as listed by the source, chain 2 of 2) above

Substance | Kd [1] [nM] | Kd [2] [nM]
recombinant, soluble HIV-1 UG37 gp140 (domain or fragment) | 11.9 | 17.1
soluble FcγRIIIa (from UniProt P08637 17-208) (receptor) | 64.4 | 858
